# Results published in US20220389073A1, “Novel Mini-Insulin With Extended C-Terminal A Chain” (University of Utah Research Foundation, priority 2019, published 2022).
# How the values were obtained:
# hIR = hIR (Homo sapiens, UniProt P06213); assay: hIR activation / insulin signaling activation; format: cell-based
# [1] = known property of shortened human insulin; cited from earlier work
Substance,potency for hIR activation compared with human insulin (hIR; FIG. 7),oligomeric state [1],hIR activation activity compared with enzymatically synthetic DOI (hIR),"potency, fold weaker than human insulin (hIR; relative to human insulin)"
"quadruple DOI mutant: DOI with A8 His, A9 Arg, B10 Glu, B20 Tyr; SEQ ID NO: 12 and SEQ ID NO: 3",comparable to that of human insulin,,,
Des-octapeptide (B23-30) human insulin [DOI],,monomeric,same,"1,000 fold"
